According to PMC6128652, “Structure of the Cladosporium fulvum Avr4 effector in complex with (GlcNAc)6 reveals the ligand-binding mechanism and uncouples its intrinsic function from recognition by the Cf-4 resistance protein” (PLoS Pathogens, 2018):
Entries after “also recorded” stand apart in the source; their conditions may differ.

Legend:
[1] = tested on: germlings of Trichoderma viride; assay: In vitro protection assay of T. viride germlings against chitinases; assay type: cell-based; settings: 5 μM protein with chitinases and β-1,3-glucanases
Protocol: The ability of the WT-CfAvr4 and of ChBD mutants to protect against chitinases was evaluated in in vitro protection assays conducted as described before. Briefly, spores of T. viride (3∙10^3) were pre-germinated overnight at room temperature in 100 μl of half-strength PDB medium in 96 well plates. The following day, 5 μM of WT-CfAvr4 or ChBD mutants were mixed with 7.5 units of Zymolyase (Zymo Research cat. no. E1004) and 0.2 units of bacterial chitinases (Sigma-Aldrich cat. no. C6137) and the mixture was added to the microtitre plate wells containing the pre-germinated spores in a final volume of 150 μl. Plates were incubated at 25°C for 6–8 h before evaluating under the microscope fungal growth and the ability of the proteins to provide protection against chitinases. Zymolase has β-1,3 glucanase and β-1,3-glucan laminaripentaohydrolase activity and is added to the mixture in order to remove the surface glucans from the fungal cell wall and thus expose the underlying chitin layer.

Cf-4 immune receptor = assay: Pure protein infiltrations into tomato leaves of cv Purdue 135 (+ Cf-4), hypersensitive response; assay type: in vivo; settings: both 5 μg/ml and 10 μg/ml, 5 dpi
From the text: Tomato seeds were obtained from the Tomato Genetic Resource Center (TGRC) at UC Davis. WT-CfAvr4 and mutants thereof with single point mutations at selected amino acids were produced and purified from E. coli Rosetta-gami B cells as description above. […]

[2] = Isothermal titration calorimetry (ITC) of CfAvr4 variants with chitin hexasaccharide; assay type: binding; settings: compared with PfAvr4
Protocol: A stock solution of the monomer of N-acetylglucosamine was prepared by dissolving the dry powder in a buffer containing 10 mM Bis-Tris, pH 6.5, 100 mM NaCl to a concentration of 0.100 g/L using analytic techniques. Standard solution of 0, 0.010, 0.025, 0.050, 0.075 g/L were prepared by serial dilutions. Using glass test tubes and pipets, 100 μL of each standard was mixed with 300μL of concentrated sulfuric acid and vortexed for 10 sec to mix. Solutions were incubated at RT for 10 min and then placed on ice to stop the reaction. […] Analytically prepared solution of the di- and tri-saccharide scaled linearly to the calibration curve. To determine the concentration of the chitin hexasaccharide solutions used in ITC, the solutions were diluted into the dynamic range of the calibration curve (S12 Fig) and subjected to the above procedure.
All ITC experiments were performed on a TA Instruments low volume NanoITC with a 186uL reaction cell and a reference cell filled with degassed Milli-Q grade water. Reactions were run in a buffer containing 10mM Bis-Tris, pH 6.5, 100 mM NaCl. The reservoir solution was filled with protein solution and continuously stirred while Chitin hexasaccharide solutions titrated in 2.5μL aliquots for 19 injections, with an initial 1μL injection, for a total injection volume of 48.5μL. The carbohydrate solutions were made by dissolving the dry powder in buffer to a concentration of 20mM (confirmed using methods described above) and then diluted to the working concentration using the final buffer exchange flow through to match the buffers as closely as possible. The integrated heats, after correction for the heat of dilution were analyzed using the NanoAnalyze software from […]. An individual binding site model was used to fit the binding isotherm. All experiments were replicated a minimum of three times.

subtilisin = assay: Subtilisin treatment (resistance against proteolytic degradation); assay type: in vitro ADME; set-up: key to Stability (Subtilisin assay): S: stable; PU: partially unstable; settings: 500 ng/μL subtilisin, 30 min, room temperature
Protocol: The WT-CfAvr4 and selected mutants thereof were exposed to the non-specific protease subtilisin in order to determine their resistance against proteolytic degradation. Treatments with subtilisin were made as previously described with minor modifications. Briefly, 40 μM of the E. coli-produced CfAvr4 and the selected CfAvr4 mutants were mixed with 10 mM of calcium chloride and 500 ng/μL of subtilisin (Sigma-Aldrich) in a total volume of 15 μL. Samples were incubated for 30 min at room temperature, after which period they were denatured by mixing with 10 mM PMSF and SDS-PAGE loading buffer, and heating at 98°C for 10 min. Digestion products were visualized on an SDS-PAGE after staining with Coomassie blue.

Cf-4 = assay: Agrobacterium tumefaciens transient transformation assay (ATTA): co-expression with Cf-4 in Nicotiana benthamiana leaves; assay type: in vivo; settings: N. benthamiana, three cell density ratios 0.5:1, 1:1, 2:1
Protocol: The Agrobacterium tumefaciens transient transformation assay (ATTA) was used for the transient co-expression into leaves of Nicotiana benthamiana of Cf-4 with the WT-CfAvr4 and the mutants thereof tested in this study. Briefly, N. benthamiana plants were grown in a growth chamber with 16 h of artificial light and 70% humidity, at 25°C for 4 weeks. The true mature form of the WT-CfAvr4 (i.e. between Lys30-Gln115) and of the mutants thereof were singly cloned into the binary expression vector pICH47742 downstream of the PR1A signal sequence of Nicotiana tabacum for targeted secretion into the apoplast, and under the control of CaMV 35S promoter and NOS terminator. The tomato Cf-4 was cloned into pMOG800 as descripted before. Binary vector plasmids were transformed into A. tumefaciens strain GV3101 by electroporation. For the ATTA assay, agrobacteria transformed with pMOG800:Cf-4 was grown in 10mL LB-mannitol medium (LB medium with 10 g/L mannitol) amended with 50 μg/mL kanamycin and 25 μg/mL rifampicin, whereas agrobacteria transformed with pICH47742:WT-CfAvr4 or pICH4774:CfAvr4-mutants were grown in LB-mannitol amended with 100 μg/mL carbenicillin and 25 μg/mL rifampicin. All cultures were incubated at 28°C for 2 days, after which period they were pelleted at 2800g for 15 min, re-suspended in MMAi medium (5 g/L Murashige and Skoog basal salts, 20 g/L sucrose, 10 mM MES, and […]) at an optical cell density (A600) of 2.0, and further incubated for 2–4 h at room temperature. Agroinfiltrations were performed by mixing agrobacteria containing pMOG800:Cf-4 with agrobacteria containing pICH47742_WT-CfAvr4 or pICH47742:CfAvr4-mutants at three different ratios of optical cell densities, i.e. A6000.5:A6001.0, A6000.5:A6000.5, and A6000.5:A6000.25 of. The mixture of agrobacteria was infiltrated into the leaves of N. benthamiana plants using a 1 mL syringe and the induction of an HR in the infiltrated leaf sectors was evaluated at 5 days post-infiltrations. Control infiltrations were made using only the pMOG800:Cf-4 transformed agrobacteria and the agrobacteria containing pICH47742:CfAvr4 or the mutants thereof without mixing the two cultures, at cell densities of A6000.25, A6000.5, and A6001.0.

[3] = tested on: tomato leaves of cv Moneymaker (–Cf-4); assay: Pure protein infiltrations into tomato leaves of cv Moneymaker (–Cf-4), hypersensitive response; assay type: in vivo
Protocol: Tomato seeds were obtained from the Tomato Genetic Resource Center (TGRC) at UC Davis. WT-CfAvr4 and mutants thereof with single point mutations at selected amino acids were produced and purified from E. coli Rosetta-gami B cells as description above. Proteins were infiltrated at a concentration of 5 μg/mL and 10 μg/mL into the back side of MM or Purdue 135 tomato leaves using a one mL syringe and the HR response was recorded at 6 days post-infiltrations.

B1: WT-CfAvr4: wild-type Avr4 effector protein of Cladosporium fulvum, CBM14 chitin-binding lectin, E. coli-produced mature form Lys30-Gln115 (protein)
chain: KAPKTQPYNPCKPQEVIDTKCMGPKDCLYPNPDSCTTYIQCVPLDEVGNAKPVVKPCPKGLQWNDNVGKKWCDYPNLSTCPVKTPQ
modifications: left off: 6x His (two), N-terminal, cleaved
morphology of hyphae after chitinase treatment [1]: remained morphologically intact
protection of fungal hyphae against chitinases, fungal growth ([1]; 6–8 h): enabled fungal growth and survival; also recorded: able to protect hyphae
Cf-4-mediated HR after protein infiltration (Cf-4 immune receptor): strong and equal in intensity HR; also recorded: strong hypersensitive response (HR); also recorded: strong and equally in intensity necrosis
higher binding affinity for (GlcNAc)6 than PfAvr4 [2]: 10 fold
Stability (Subtilisin assay) (subtilisin): S
HR on transient co-expression with Cf-4 (Cf-4): strong and similar in intensity HR
HR after protein infiltration [3]: none of the mutants or the WT-CfAvr4 induced an HR; also recorded: None of the proteins, WT-CfAvr4 or mutants, elicited an HR
